Laboratory results from US20040072753A1 (published 2004).
Values belong to the binder of their own block, whether it stands above or below them. Where no end group is shown, it is not given here.

B2: EAβBP peptide (ERAB residues 99-108) (peptide, UniProt Q99714 99-108, looked up)
peptide: KTYNLKKGQT
notes: range 99-108; 21 covers only ERAB 101-109; also called EAβBD

Key:
[1] = target: B2; test: ELISA, EAβBP-coated plate
Procedure: (§1) After washing to remove unbound material, an alkaline phosphatase polymer-streptavidin conjugate (Sigma, Dorset, UK) was added and incubated at 37° C. for 2 hours. After washing to remove unbound material, p-nitrophenylphosphate substrate was added and absorbance at 405 nm determined.

[2] = target: T1, recombinant human cyclin B1 (human, UniProt P14635 1-433, limits assumed); test: ELISA, cyclin B1-coated plate
T1 construct: Coated on ELISA plates
T1 sequence (P14635 whole entry): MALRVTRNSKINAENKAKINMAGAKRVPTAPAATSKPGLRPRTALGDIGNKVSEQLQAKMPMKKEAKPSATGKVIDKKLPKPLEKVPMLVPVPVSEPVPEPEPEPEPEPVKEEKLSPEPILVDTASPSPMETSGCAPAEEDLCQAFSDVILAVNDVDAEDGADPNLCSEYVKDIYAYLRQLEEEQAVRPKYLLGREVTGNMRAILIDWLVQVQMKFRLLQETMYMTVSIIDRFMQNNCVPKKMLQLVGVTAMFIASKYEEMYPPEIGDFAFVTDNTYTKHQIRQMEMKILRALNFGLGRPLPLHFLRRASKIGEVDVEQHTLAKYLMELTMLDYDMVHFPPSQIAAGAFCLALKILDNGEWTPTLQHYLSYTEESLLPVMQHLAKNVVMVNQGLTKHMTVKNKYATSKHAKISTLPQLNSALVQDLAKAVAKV
Procedure: (§2) ELISA plates were coated with recombinant human cdc2 or the cdc2 119-133 peptide fragment (CDKP1) (1 μg ml⁻¹) in carbonate buffer and unoccupied sites blocked with 5% (w/v) dried milk. […] After washing to remove unbound material, an alkaline phosphatase polymer-streptavidin conjugate (Sigma, Dorset, UK) was added and incubated at 37° C. for 2 hours. After washing to remove unbound material p-nitrophenylphosphate substrate was added and absorbance at 405 nm determined.
Cyclins are co-factors for cdc2 which are required for enzyme activity. These proteins also contain substrate recognition sequences which may play a role in the recruitment of substrate molecules to the active cdc2/cyclin complex. The recombinant cdc2/cyclin enzyme complex used in the above phosphorylation experiments contained cyclin B1. […] Binding assays as described above using cyclin B1 coated plates were carried out.

[3] = target: T2, recombinant human cdc2 (human, UniProt P06493 1-297, limits assumed); test: ELISA, cdc2-coated plate, biotinylated peptide 200 pM
T2 construct: Coated on ELISA plates at 1 µg/ml; also called p34-cdc2
T2 sequence (P06493 whole entry): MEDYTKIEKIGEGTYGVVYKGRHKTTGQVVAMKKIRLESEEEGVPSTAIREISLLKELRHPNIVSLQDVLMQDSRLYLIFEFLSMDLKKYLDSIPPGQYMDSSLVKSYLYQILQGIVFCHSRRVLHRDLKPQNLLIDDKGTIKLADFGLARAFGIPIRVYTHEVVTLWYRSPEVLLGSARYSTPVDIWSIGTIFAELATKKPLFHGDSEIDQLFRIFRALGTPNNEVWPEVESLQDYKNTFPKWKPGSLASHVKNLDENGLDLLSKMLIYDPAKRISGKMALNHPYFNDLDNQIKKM
Procedure: as §2

[4] = target: T3, CAβBP peptide (catalase residues 400-409) (human, UniProt P04040 400-409); test: ELISA, CAβBP-coated plate
T3 construct: range 400-409; 20 covers only catalase 402-414; also called CAIIBP; CARBP
T3 peptide (looked up): GAPNYYPNSF
Procedure: as §1

[5] = target: T4, Aβ 1-42 (biotinylated (LinKit-Biolink kit, site not stated) where used as the labelled tracer; unlabelled where used as competitor or in activity assays); test: competition ELISA, EAβBP-coated plate, Scatchard analysis
T4 construct: catalase and cytotoxicity assays; also called biotinylated Aβ 1-42; Amyloid-β 1-42
Procedure: as §1

binding result [2]: binds
binding result [3]: binds
B1: Aβ 25-35 (peptide)
peptide: GSNKGAIIGLM
modifications: also: biotinylated in some assays, site not given here
notes: Used both biotinylated and unlabelled; also called biotinylated Aβ 25-35
binding result [1]: no binding (tested: 200 pM biotinylated peptide)

Binder: VHHQKLVFFAEDVGSNK (also: biotinylated, site not given here, also called biotinylated Aβ 12-28) [Aβ 12-28]
binding result [4]: no binding (tested: 200 pM biotinylated peptide)

Binder: B2
Kd [5]: 107 nM
